{"source": "paper PMC7425896", "about": "“Polypeptides derived from α-Synuclein binding partners to prevent α-Synuclein fibrils interaction with and take-up by cells” (PLoS ONE, 2020)", "origin": "cited, not measured here", "target": "α-Synuclein fibrils (Homo sapiens) (UniProt P37840)", "assay": "sedimentation assay", "data": [{"substance": "Hsc70 (from UniProt P11142)", "values": [{"measurement": "Kd", "result": 100, "unit": "nM"}]}]}
